Values belong to the binder of their own block, whether it stands above or below them. Primed or numbered codes have the meaning given here. Where no end group is shown, it is not given here. Biotin′ = not defined here
Assays:
[1] = target: recombinant PRC2 purified from SF9 cells (EZH2, SUZ12, EED, RBBP4) (human, UniProt Q15910 1-746; Q15022 1-739; O75530 1-441; Q09028 1-425); experiment: cell-based or functional assay
[2] = target: native PRC2 purified from HeLa cells expressing FLAG-tagged EZH2 ( | human (endogenous in HeLa), UniProt Q15910 1-746); experiment: steady-state enzyme kinetics (inhibition of methyltransferase activity); increasing oligonucleosome substrate with PRC2, SAM and varying EZHIP; Michaelis-Menten and Lineweaver-Burk curves fitted with competitive mode of inhibition; details: both partners purified
Chain of native PRC2 purified from HeLa cells expressing FLAG-tagged EZH2 (Q15910 whole entry, chain 1 of 4): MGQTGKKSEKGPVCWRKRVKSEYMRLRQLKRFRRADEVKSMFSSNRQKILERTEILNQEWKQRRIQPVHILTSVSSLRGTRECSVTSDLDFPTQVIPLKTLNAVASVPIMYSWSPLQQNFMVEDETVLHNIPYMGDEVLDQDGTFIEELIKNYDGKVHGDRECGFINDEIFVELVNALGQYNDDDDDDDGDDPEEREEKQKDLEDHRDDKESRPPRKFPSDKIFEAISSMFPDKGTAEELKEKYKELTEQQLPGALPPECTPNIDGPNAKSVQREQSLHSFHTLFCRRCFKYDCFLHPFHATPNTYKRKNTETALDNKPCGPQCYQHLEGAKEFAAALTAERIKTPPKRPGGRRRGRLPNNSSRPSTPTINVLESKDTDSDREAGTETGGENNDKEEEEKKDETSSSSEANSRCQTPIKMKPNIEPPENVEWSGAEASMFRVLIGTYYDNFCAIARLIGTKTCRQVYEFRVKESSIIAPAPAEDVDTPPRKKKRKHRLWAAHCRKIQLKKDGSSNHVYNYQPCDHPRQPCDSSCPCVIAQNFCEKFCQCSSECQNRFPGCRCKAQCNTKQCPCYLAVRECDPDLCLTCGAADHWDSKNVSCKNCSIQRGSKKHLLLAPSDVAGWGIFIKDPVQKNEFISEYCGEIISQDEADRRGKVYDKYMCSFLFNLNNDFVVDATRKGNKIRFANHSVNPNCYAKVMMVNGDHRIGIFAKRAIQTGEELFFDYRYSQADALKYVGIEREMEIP
Chain of native PRC2 purified from HeLa cells expressing FLAG-tagged EZH2 (Q15022 whole entry, chain 2 of 4, further chain): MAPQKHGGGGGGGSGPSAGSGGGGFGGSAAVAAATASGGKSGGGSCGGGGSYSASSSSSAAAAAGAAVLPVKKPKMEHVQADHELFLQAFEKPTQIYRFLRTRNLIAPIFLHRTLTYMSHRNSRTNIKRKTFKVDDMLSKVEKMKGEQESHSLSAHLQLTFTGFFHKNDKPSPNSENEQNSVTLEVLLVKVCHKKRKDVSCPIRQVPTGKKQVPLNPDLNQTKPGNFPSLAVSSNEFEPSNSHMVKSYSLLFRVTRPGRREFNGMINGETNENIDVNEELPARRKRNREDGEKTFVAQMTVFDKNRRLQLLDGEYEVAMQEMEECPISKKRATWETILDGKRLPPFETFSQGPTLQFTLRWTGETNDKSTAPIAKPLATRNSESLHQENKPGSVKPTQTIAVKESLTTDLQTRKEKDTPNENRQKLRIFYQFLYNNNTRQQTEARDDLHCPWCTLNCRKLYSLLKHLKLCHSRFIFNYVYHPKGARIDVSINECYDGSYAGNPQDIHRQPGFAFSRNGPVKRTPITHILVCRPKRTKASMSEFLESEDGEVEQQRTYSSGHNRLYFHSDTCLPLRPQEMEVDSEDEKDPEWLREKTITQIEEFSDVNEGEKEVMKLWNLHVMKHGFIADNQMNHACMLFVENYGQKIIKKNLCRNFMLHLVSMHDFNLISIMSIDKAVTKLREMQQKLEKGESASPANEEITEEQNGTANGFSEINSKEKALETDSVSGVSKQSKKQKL
Chain of native PRC2 purified from HeLa cells expressing FLAG-tagged EZH2 (O75530 2-441, chain 3 of 4, further chain): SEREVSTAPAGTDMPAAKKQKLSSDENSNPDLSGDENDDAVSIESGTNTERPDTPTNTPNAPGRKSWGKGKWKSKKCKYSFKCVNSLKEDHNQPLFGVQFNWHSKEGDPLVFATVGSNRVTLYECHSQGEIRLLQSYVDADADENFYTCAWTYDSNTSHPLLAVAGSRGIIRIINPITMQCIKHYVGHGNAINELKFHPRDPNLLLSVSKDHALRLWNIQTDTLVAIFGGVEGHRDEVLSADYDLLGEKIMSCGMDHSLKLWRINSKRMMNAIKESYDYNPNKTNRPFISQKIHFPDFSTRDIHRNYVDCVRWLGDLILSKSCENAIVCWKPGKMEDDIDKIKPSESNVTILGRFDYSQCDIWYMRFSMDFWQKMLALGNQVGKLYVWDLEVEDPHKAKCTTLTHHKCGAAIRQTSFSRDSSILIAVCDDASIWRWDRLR
Chain of native PRC2 purified from HeLa cells expressing FLAG-tagged EZH2 (Q09028 2-425, chain 4 of 4, further chain): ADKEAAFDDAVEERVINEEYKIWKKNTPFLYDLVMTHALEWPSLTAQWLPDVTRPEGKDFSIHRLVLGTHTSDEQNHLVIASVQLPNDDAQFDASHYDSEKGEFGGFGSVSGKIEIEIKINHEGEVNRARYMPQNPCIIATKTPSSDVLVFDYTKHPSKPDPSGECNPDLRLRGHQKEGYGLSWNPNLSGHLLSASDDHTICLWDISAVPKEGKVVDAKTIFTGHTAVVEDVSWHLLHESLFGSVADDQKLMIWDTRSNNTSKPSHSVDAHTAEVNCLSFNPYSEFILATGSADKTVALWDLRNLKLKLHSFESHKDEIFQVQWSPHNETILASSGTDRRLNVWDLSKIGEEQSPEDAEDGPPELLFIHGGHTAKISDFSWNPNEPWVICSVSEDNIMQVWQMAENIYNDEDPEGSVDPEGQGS

Chain of recombinant PRC2 purified from SF9 cells (EZH2, SUZ12, EED, RBBP4) (Q15910 whole entry, chain 1 of 4): as the sequence (Q15910 whole entry, chain 1 of 4) above
Chain of recombinant PRC2 purified from SF9 cells (EZH2, SUZ12, EED, RBBP4) (Q15022 whole entry, chain 2 of 4): as the sequence (Q15022 whole entry, chain 2 of 4, further chain) above
Chain of recombinant PRC2 purified from SF9 cells (EZH2, SUZ12, EED, RBBP4) (O75530 whole entry, chain 3 of 4): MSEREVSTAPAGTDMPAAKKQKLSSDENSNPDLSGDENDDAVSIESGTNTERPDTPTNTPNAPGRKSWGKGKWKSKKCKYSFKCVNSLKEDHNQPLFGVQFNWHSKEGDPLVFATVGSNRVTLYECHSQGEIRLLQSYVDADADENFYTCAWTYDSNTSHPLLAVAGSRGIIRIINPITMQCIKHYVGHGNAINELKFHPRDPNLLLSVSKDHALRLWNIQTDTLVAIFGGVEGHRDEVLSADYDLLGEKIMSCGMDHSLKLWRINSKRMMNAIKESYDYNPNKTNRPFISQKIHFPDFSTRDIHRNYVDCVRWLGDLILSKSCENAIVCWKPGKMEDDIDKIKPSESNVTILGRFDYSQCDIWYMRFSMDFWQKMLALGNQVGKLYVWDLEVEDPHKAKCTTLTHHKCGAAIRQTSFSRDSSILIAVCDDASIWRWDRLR
Chain of recombinant PRC2 purified from SF9 cells (EZH2, SUZ12, EED, RBBP4) (Q09028 whole entry, chain 4 of 4): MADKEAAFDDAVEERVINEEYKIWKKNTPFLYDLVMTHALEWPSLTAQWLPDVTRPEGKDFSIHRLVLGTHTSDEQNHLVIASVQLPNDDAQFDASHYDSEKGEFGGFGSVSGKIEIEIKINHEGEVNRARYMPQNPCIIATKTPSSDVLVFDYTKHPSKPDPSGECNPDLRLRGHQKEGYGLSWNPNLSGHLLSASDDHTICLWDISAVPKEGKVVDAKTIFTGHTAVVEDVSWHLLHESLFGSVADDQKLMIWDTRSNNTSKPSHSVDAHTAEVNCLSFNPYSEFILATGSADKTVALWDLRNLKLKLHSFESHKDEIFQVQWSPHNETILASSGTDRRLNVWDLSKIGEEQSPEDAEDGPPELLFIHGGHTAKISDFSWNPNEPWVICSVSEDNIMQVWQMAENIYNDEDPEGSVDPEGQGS

IC50 of PRC2 methyltransferase activity on H3 18-37 peptide, EZHIP KLP titrated, without H3K27me3 stimulatory peptide [1]: 35 µM | IC50 of rPRC2-Ezh2 methyltransferase activity on H3 (18-37) peptide substrate, KLP (403-423) peptide titrated, with H3K27me3 stimulatory peptide [1]: 4.1 µM
B1: biotinylated EZHIP (403-422) peptide, K27M-like peptide (peptide)
peptide: AVRMRASSPSPPGRFFLPIPK-{Biotin′}
modifications: not fully specified (residue 21); printed as AVRMRASSPSPPGRFFLPIPK-biotin

Ki [2]: 0.00222 µM
B2: recombinant EZHIP purified from SF9 cells (natural protein)
chain: MATQSDMEKEQKHQQDEGQGGLNNETALASGDACGTGNQDPAASVTTVSSQASPSGGAALSSSTAGSSAAAATSAAIFITDEASGLPIIAAVLTERHSDRQDCRSPHEVFGCVVPEGGSQAAVGPQKATGHADEHLAQTKSPGNSRRRKQPCRNQAAPAQKPPGRRLFPEPLPPSSPGFRPSSYPCSGASTSSQATQPGPALLSHASEARPATRSRITLVASALRRRASGPGPVIRGCTAQPGPAFPHRATHLDPARLSPESAPGPARRGRASVPGPARRGCDSAPGPARRGRDSAPVSAPRGRDSAPGSARRGRDSAPGPALRVRTARSDAGHRSTSTTPGTGLRSRSTQQRSALLSRRSLSGSADENPSCGTGSERLAFQSRSGSPDPEVPSRASPPVWHAVRMRASSPSPPGRFFLPIPQQWDESSSSSYASNSSSPSRSPGLSPSSPSPEFLGLRSISTPSPESLRYALMPEFYALSPVPPEEQAEIESTAHPATPPEP

IC50 of rPRC2-Ezh2 methyltransferase activity on H3 (18-37) peptide substrate, H3 K27M (18-37) peptide titrated, with H3K27me3 stimulatory peptide [1]: 27.9 µM
B3: biotinylated H3.3 K27M (18-37) peptide (peptide)
peptide: KQLATKAARMSAPSTGGVKKYK
modifications: not fully specified; biotin on the added C-terminal K

— PMC6513997, “PFA ependymoma-associated protein EZHIP inhibits PRC2 activity through a H3 K27M-like mechanism” (Nature Communications, 2019)
